Legend:
[1] = target: T1, streptavidin (UniProt P22629 37-163, limits assumed); assay: fluorescent binding curve, labeled SA in 50% urine, 4 h; quadratic fit
T1 construct: It was used without a stated label in the sandwich assays; also called SA

[2] = target: T1, streptavidin; assay: sandwich assay: SA in 50% blood serum, biotin-HRP/TMB detection
[3] = target: monomeric streptavidin variant mSA2; assay: fluorescent binding assay: labeled mSA2 in PBS applied to the protein monolayer, rinsed, fluorescence microscopy
Procedure: The binding function of rcSso7d.SA oligomer-PNIPAM thin films was measured using fluorescently-labeled monomeric streptavidin (mSA2) and fluorescently-labeled streptavidin (SA). Details for the expression, purification, and fluorescent labeling of mSA2 are provided below. Samples were prepared by serial dilution of SA or mSA2 in PBS (pH 7.4), human urine (diluted to 50% v/v in PBS, pH 7.4), or blood serum (obtained as the supernatant by centrifuging whole blood at 1500×g for 10 minutes, then diluted to 50% v/v in PBS, pH 7.4). 0.5 μL drops of solutions containing serially diluted fluorescent mSA2 and fluorescent SA samples in PBS (pH 7.4) were gently applied to the surface of each bioconjugate thin film. […] After 1 hour, films were thoroughly rinsed with water for 10 seconds (a time determined to be sufficient to remove unbound molecules from the film, see FIG. 33, dried under filtered airflow, and immediately analyzed for fluorescent signal. Fluorescence microscopy images were acquired at 4× magnification using a Cy5 filter set and exposure time of 5000 ms on an Olympus IX-81 inverted fluorescence microscope with an AxioCam HRC CCD camera. Fluorescent intensity was calculated using ImageJ software⁶⁷ by determining the average fluorescent signal in a rectangular area of the fluorescent image free of defects and occupying no less than half of the full sample application area. […]

[4] = target: T1, streptavidin; assay: apparent Kd (Kd,app); fluorescent binding curve, labeled SA in 50% urine, 4 h; quadratic fit
[5] = target: monomeric streptavidin variant mSA2; assay: fluorescent binding curve, labeled mSA2 in 50% blood serum, 4 h; quadratic fit
[6] = target: monomeric streptavidin variant mSA2; assay: apparent Kd (Kd,app); fluorescent binding curve, labeled mSA2 in 50% urine, 4 h; quadratic fit
[7] = target: monomeric streptavidin variant mSA2; assay: fluorescent binding curve, labeled mSA2 in 50% urine, 4 h; quadratic fit
[8] = target: monomeric streptavidin variant mSA2; assay: apparent Kd (Kd,app); fluorescent binding curve, labeled mSA2 in 50% blood serum, 4 h; quadratic fit
[9] = target: T1, streptavidin; assay: sandwich assay: SA in 50% urine, biotin-HRP/TMB detection

T1 sequence (P22629 37-163 limits assumed): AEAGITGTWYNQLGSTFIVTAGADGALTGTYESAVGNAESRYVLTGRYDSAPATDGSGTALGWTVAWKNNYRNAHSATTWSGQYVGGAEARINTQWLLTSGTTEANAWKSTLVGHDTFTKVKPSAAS

B1: rcSso7d.SA monolayer (designed binder)
chain: MGSIHHHHHHSSGLVPRGSHMCATVKFTYQGEEKQVDISKIKIVARDGQYIDFKYDEGGGAYGYGWVSEKDAPKELLQMLEKQ
modifications: EDC/NHS-activated protein coupled to an amine-functionalized silicon wafer
notes: also called monomeric rcSso7d.SA; surface-immobilized rcSso7d.SA
[P]T (total concentration of binding sites) [1]: 0.29 nM | LOD [2]: 40 nM | EC50 (read off the curve) [3]: ~2000 nM | Kd [4]: 47 µM | [P]T (total concentration of binding sites) [5]: 0.4 nM | Kd [6]: 50 µM | [P]T (total concentration of binding sites) [7]: 0.4 nM | Kd [8]: 62 µM | LOD [9]: 32 nM
